Measurements as given in US11994512B2, “Single-cell genomic methods to generate ex vivo cell systems that recapitulate in vivo biology with improved fidelity” (Massachusetts Institute of Technology, priority 2018, dated 2024).

B1: Q9QYB2 (protein, UniProt Q9QYB2 1-751, looked up)
chain: MAVPAALIPPTQLVPPQPPISTSASSSGTTTSTSSATSSPAPSIGPPASSGPTLFRPEPIASSASSSAAATVTSPGGGGGGSGGGGGSGGNGGGGGSNCNPSLAAGSSGGGVSAGGGGASSTPITASTGSSSSSSSSSSSSSSSSSSSSSSSSSSSCGPLPGKPVYSTPSPVENTPQNNECKMVDLRGAKVASFTVEGCELICLPQAFDLFLKHLVGGLHTVYTKLKRLEITPVVCNVEQVRILRGLGAIQPGVNRCKLISRKDFETLYNDCTNASSRPGRPPKRTQSVTSPENSHIMPHSVPGLMSPGIIPPTGLTAAAAAAAAATNAAIAEAMKVKKIKLEAMSNYHASNNQHGADSENGDMNSSVGSSGGSWDKETLHSPPSQGSQAPVAHARMPAAFSLPVSHPLNHLQHSHLPPNGLELPFMMMPHPLIPVSLPPASVTMAMSQMNHLSTIANMAAAAQVQSPPSRVETSVIKERVPDSPSPAPSLEEGRRPGSHPSSHRSSSVSSSPARTESSSDRIPVHQNGLSMNQMLMGLSPNVLPGPKEGDLAGHDMGHESKRIHIEKDETPLSTPTARDSIDKLSLTGHGQPLPPGFPSPFLFPDGLSSIETLLTNIQGLLKVAIDNARAQEKQVQLEKTELKMDFLRERELRETLEKQLAMEQKNRAIVQKRLKKEKKAKRKLQEALEFETKRREQAEQTLKQAASADSLRVLNDSLTPEIEADRSGGRADAERTIQDGRLYLKTTVMY
modifications: full-length
B2: Q9R022 (protein, UniProt Q9R022 1-198, looked up)
chain: MDAILNYRPEGSEDYYALLGCDELSSVEQILAEFKIRALECHPDKHPENSKAVETFQKLQKAKEILCNAESRARYDHWRRSQMSMPFEQWEALADSVKTSMHWAVRSKKDLMLEGSGQTFTSSVPNKERSEQRETKKGDPDSNPEKMKQKEPKFPEEGISPQNPDSPGLSDLNCGHLRFRWSGDAPSELLRKFRNYEI
modifications: full-length
B3: Q9QYY9 (protein, UniProt Q9QYY9 1-377, looked up)
chain: MGTQGKVIKCKAAIAWKTGSPLCIEEIEVSPPKACEVRIQVIATCVCPTDINATDPKKKALFPVVLGHECAGIVESVGPGVTNFKPGDKVIPFFAPQCKRCKLCLSPLTNLCGKLRNFKYPTIDQELMEDRTSRFTCKGRSIYHFMGVSSFSQYTVVSEANLARVDDEANLERVCLIGCGFSSGYGAAINTAKVTPSSTCAVFGLGCVGLSAIIGCKIAGASRIIAIDINGEKFPKAKALGATDCLNPRELDKPVQDVITELTAGGVDYSLDCAGTAQTLKAAVDCTVLGWGSCTVVGAKVDKMTIPTVDVILGRSINGTFFGGWKSVDSVPNLVSDYKNKKFDLDLLVTHALPFESINDAIDLMKEGKSIRTILTF
modifications: full-length
B4: Q9WVJ3 (protein, UniProt Q9WVJ3 1-470, looked up)
chain: MRSLFFLFIVHLLALGSGKAVFKNGVSQRTFREIKEEIANYEDVAKAIINLAVYGKYQNRSYERLGLLVDTVGPRLSGSKNLEKAIQIMYQNLQQDGLENVHLEQVRIPHWERGEESAVMLEPRIHKMAILGLGSSIGTPPGGITAEVLVVASFDELQRRASEARGKIIVYNQPYTGYEKTVQYRVQGAVEAAKVGAVASLIQSVASFSIYSPHTGIQKYQDGVPKIPTACITVEDAEMMSRMASRGNKIVIHLEMGAKTYPDTDSFNTVAEITGSMYPEEVVLVSGHLDSWDVGQGALDDGGGAFISWEALSLVKDLGLRPKRTLRLVLWTAEEQGGIGASQYYELHKANISKYSLVMEADSGTFLPTGLQFTGSDKARAIMKEVMNLLQPLNVTKVFSNGEGTDINFWIQAGVPGASLRDDLYKYFFFHHSHGDTMTVMDPKQMNVAAAVWAVVAYVVADMDEMLPRS
modifications: full-length
B5: Q9QXV0 (protein, UniProt Q9QXV0 1-258, looked up)
chain: MAGSPLLCGPRAGGVGILVLLLLGLLRLPPTLSARPVKEPRSLSAASAPLVETSTPLRLRRAVPRGEAAGAVQELARALAHLLEAERQERARAEAQEAEDQQARVLAQLLRAWGSPRASDPPLAPDDDPDAPAAQLARALLRARLDPAALAAQLVPAPAAAPRPRPPVYDDGPTGPDVEDAGDETPDVDPELLRYLLGRILTGSSEPEAAPAPRRLRRSVDQDLGPEVPPENVLGALLRVKRLENPSPQAPARRLLPP
modifications: full-length
B6: Q9R098 (protein, UniProt Q9R098 1-653, looked up)
chain: MGRQAWISSLCPLPRPCPFLLLLLLLVVPRGAQPQAGRNHTEPPGPNVTATPVTPTIPVISGNVSTSTESAPAAETEGPQSERYPPPSSSSPPGGQVLTESGQPCRFPFRYGGRMLHSCTSEGSAYRKWCATTHNYDRDRAWGYCAEVTLPVEGPAILDPCASGPCLNGGTCSSTHDHGSYHCSCPLAFTGKDCGTEKCFDETRYEYFEVGDHWARVSEGHVEQCGCMEGQARCEDTHHTACLSSPCLNGGTCHLIVGTGTSVCTCPLGYAGRFCNIVPTEHCFLGNGTEYRGVASTAASGLSCLAWNSDLLYQELHVDSVAAAVLLGLGPHAYCRNPDKDERPWCYVVKDNALSWEYCRLTACESLARVHSQTPEILAALPESAPAVRPTCGKRHKKRTFLRPRIIGGSSSLPGSHPWLAAIYIGNSFCAGSLVHTCWVVSAAHCFANSPPRDSITVVLGQHFFNRTTDVTQTFGIEKYVPYTLYSVFNPNNHDLVLIRLKKKGERCAVRSQFVQPICLPEAGSSFPTGHKCQIAGWGHMDENVSSYSNSLLEALVPLVADHKCSSPEVYGADISPNMLCAGYFDCKSDACQGDSGGPLVCEKNGVAYLYGIISWGDGCGRLNKPGVYTRVANYVDWINDRIRPPKRPVATS
modifications: full-length
B7: Q9QXE2 (protein, UniProt Q9QXE2 1-573, looked up)
chain: MDPQGIVKAFPKRKKSHADLSSKALAKIPKREVGEARGWLSSLRAHIMPAGIGRARAELFEKQIIHHGGQVCSAQAPGVTHIVVDEDMDYERALRLLRLPQLPPGAQLVKSTWLSLCLQEGRLTDTEGFSLPMPKRSLDEPQPSKSGQDASAPGTQRDLPRTTLSLSPPHTRAVSPPPTAEKPSRTQAQLSSEDETSDGEGPQVSSADLQALITGHYPTPPEEDGGPDPAPEALDKWVCAQPSSQKATNYNLHITEKLEVLAKAYSVQGDKWRALGYAKAINALKSFHKPVSSYQEACSIPGIGKRMAEKVMEILESGHLRKLDHISDSVPVLELFSNIWGAGTKTAQMWYHQGFRNLEDLQSLGSLTAQQAIGLKHYDDFLDRMPREEAAEIEQTVRISAQAFNPGLLCVACGSYRRGKMTCGDVDVLITHPDGRSHRGIFSCLLDSLRQQGFLTDDLVSQEENGQQQKYLGVCRLPGPGKRHRRLDIIVVPYCEFACALLYFTGSAHFNRSMRALAKTKGMSLSEHALSAAVVRNSQGVKVGPGQVLPTPTEKDVFKHLGLPYREPAERDW
modifications: full-length

System: intracellular proteome of ENR+CD and ENR organoids
Experiment: LC-MS/MS TMT proteomics of ENR+CD versus ENR organoids
Format: cell-based, C57BL/6 mice
Settings: ENR+CD versus ENR organoids, sample pairs in aggregate (n=4, 2 technical replicates from two biological donors)

**Q.** Which “Average logFC” value does the source give for B1 here?
**A.** Its value is 1.286.

**Q.** B2 was tested. Which “Average logFC” value did it give?
**A.** The value was 1.154.

**Q.** For B3, which “Average logFC” value is on record?
**A.** The value was −1.654.

**Q.** How did the “Average logFC” value turn out when B4 was run?
**A.** The value was 1.351.

**Q.** For B5, which “Average logFC” value is on record?
**A.** The value was 1.274.

**Q.** B6 was tested. Which “Average logFC” value did it give?
**A.** The value was 1.366.

**Q.** With B7 as the molecule, how does the “Average logFC” value read?
**A.** The value was 1.478.

Same assay, conditions: protein abundance ratio ENR+CD versus ENR organoids, sample pair M1-1; LC-MS/MS TMT proteomics

**Q.** Which “M1-1 Log2 Median Normalized” value does the source give for B1 here?
**A.** Its value is 0.838.

**Q.** B2 was tested. Which “M1-1 Log2 Median Normalized” value did it give?
**A.** The value was 1.573.

**Q.** With B3 as the molecule, how does the “M1-1 Log2 Median Normalized” value read?
**A.** The value was −1.109.

**Q.** For B4, which “M1-1 Log2 Median Normalized” value is on record?
**A.** Its value is 1.348.

**Q.** For B5, which “M1-1 Log2 Median Normalized” value is on record?
**A.** Its value is 1.444.

**Q.** For B6, which “M1-1 Log2 Median Normalized” value is on record?
**A.** The value was 1.864.

**Q.** For B7, which “M1-1 Log2 Median Normalized” value is on record?
**A.** The value was 0.861.

Same assay, conditions: protein abundance ratio ENR+CD versus ENR organoids, sample pair M1-2; LC-MS/MS TMT proteomics

**Q.** How did the “M1-2 Log2 Median Normalized” value turn out when B1 was run?
**A.** The value was 1.286.

**Q.** B2 was tested. Which “M1-2 Log2 Median Normalized” value did it give?
**A.** Its value is 1.212.

**Q.** B3 was tested. Which “M1-2 Log2 Median Normalized” value did it give?
**A.** The value was −2.606.

**Q.** B4 was tested. Which “M1-2 Log2 Median Normalized” value did it give?
**A.** The value was 0.221.

**Q.** How did the “M1-2 Log2 Median Normalized” value turn out when B5 was run?
**A.** The value was 0.883.

**Q.** B6 was tested. Which “M1-2 Log2 Median Normalized” value did it give?
**A.** Its value is 1.188.

**Q.** B7 was tested. Which “M1-2 Log2 Median Normalized” value did it give?
**A.** Its value is 1.509.

Same assay, conditions: protein abundance ratio ENR+CD versus ENR organoids, sample pair M2-1; LC-MS/MS TMT proteomics

**Q.** Which “M2-1 Log2 Median Normalized” value does the source give for B1 here?
**A.** Its value is 1.3505.

**Q.** B2 was tested. Which “M2-1 Log2 Median Normalized” value did it give?
**A.** Its value is 0.6885.

**Q.** For B3, which “M2-1 Log2 Median Normalized” value is on record?
**A.** The value was −2.0305.

**Q.** With B4 as the molecule, how does the “M2-1 Log2 Median Normalized” value read?
**A.** Its value is 2.1645.

**Q.** Which “M2-1 Log2 Median Normalized” value does the source give for B5 here?
**A.** The value was 1.5975.

**Q.** With B6 as the molecule, how does the “M2-1 Log2 Median Normalized” value read?
**A.** The value was 0.7445.

**Q.** How did the “M2-1 Log2 Median Normalized” value turn out when B7 was run?
**A.** The value was 1.4485.

Same assay, conditions: protein abundance ratio ENR+CD versus ENR organoids, sample pair M2-2; LC-MS/MS TMT proteomics

**Q.** Which “M2-2 Log2 Median Normalized” value does the source give for B1 here?
**A.** Its value is 1.402.

**Q.** Which “M2-2 Log2 Median Normalized” value does the source give for B2 here?
**A.** The value was 1.141.

**Q.** With B3 as the molecule, how does the “M2-2 Log2 Median Normalized” value read?
**A.** The value was −0.87.

**Q.** B4 was tested. Which “M2-2 Log2 Median Normalized” value did it give?
**A.** Its value is 1.67.

**Q.** Which “M2-2 Log2 Median Normalized” value does the source give for B5 here?
**A.** The value was 1.172.

**Q.** For B6, which “M2-2 Log2 Median Normalized” value is on record?
**A.** The value was 1.669.

**Q.** For B7, which “M2-2 Log2 Median Normalized” value is on record?
**A.** Its value is 2.093.

Same assay, conditions: up = enriched in ENR+CD, down = enriched in ENR; FDR<0.05 and log fold change cut-off

**Q.** B1 was tested. Which change did it give?
**A.** Its change is “up”.

**Q.** For B2, which change is on record?
**A.** The change was “up”.

**Q.** How did the change turn out when B3 was run?
**A.** The change was “down”.

**Q.** B4 was tested. Which change did it give?
**A.** The change was “up”.

**Q.** B5 was tested. Which change did it give?
**A.** The change was “up”.

**Q.** Which change does the source give for B6 here?
**A.** Its change is “up”.

**Q.** Which change does the source give for B7 here?
**A.** Its change is “up”.
